Source: the supplement of paper PMC6379048

What was measured:
Experiment in all cases: EC50 of free RNA motif oligo competing protein binding to immobilised probe
SRSF3 = biological target: T1, SRSF3 (UniProt P84103)
T1 sequence: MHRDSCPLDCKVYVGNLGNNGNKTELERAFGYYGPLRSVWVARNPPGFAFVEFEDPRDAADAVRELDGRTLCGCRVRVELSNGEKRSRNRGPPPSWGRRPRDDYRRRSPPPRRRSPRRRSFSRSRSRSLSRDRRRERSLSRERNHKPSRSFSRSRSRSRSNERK
Outline: (§1)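 Free RNA oligos (0 nM to 30 μM) competed for 1 h at 4°C in HEK293-FT lysate (2.5 mg protein/well) before a 30 min, 4°C pulldown with the same oligos on NHS-Sepharose beads. Bound proteins were quantified by label-free LC-MS/MS and normalised to the control. Kd was found by multiplying EC50, from a four-parameter log-logistic fit, by a protein-dependent depletion factor.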

CSTF1 = biological target: T2, CSTF1 (UniProt Q05048)
T2 sequence: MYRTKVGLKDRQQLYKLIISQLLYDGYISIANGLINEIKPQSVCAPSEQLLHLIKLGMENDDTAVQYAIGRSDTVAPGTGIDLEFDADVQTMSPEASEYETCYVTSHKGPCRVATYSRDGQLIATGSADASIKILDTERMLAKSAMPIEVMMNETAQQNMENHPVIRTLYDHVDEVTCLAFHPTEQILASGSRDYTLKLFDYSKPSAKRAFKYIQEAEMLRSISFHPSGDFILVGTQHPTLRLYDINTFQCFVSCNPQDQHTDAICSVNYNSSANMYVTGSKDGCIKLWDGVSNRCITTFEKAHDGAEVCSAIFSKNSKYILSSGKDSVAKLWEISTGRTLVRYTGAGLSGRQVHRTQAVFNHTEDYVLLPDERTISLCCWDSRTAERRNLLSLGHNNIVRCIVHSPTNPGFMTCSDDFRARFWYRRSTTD
Outline: as §1

TFIP11 = biological target: T3, TFIP11 (UniProt Q9UBB9)
T3 sequence: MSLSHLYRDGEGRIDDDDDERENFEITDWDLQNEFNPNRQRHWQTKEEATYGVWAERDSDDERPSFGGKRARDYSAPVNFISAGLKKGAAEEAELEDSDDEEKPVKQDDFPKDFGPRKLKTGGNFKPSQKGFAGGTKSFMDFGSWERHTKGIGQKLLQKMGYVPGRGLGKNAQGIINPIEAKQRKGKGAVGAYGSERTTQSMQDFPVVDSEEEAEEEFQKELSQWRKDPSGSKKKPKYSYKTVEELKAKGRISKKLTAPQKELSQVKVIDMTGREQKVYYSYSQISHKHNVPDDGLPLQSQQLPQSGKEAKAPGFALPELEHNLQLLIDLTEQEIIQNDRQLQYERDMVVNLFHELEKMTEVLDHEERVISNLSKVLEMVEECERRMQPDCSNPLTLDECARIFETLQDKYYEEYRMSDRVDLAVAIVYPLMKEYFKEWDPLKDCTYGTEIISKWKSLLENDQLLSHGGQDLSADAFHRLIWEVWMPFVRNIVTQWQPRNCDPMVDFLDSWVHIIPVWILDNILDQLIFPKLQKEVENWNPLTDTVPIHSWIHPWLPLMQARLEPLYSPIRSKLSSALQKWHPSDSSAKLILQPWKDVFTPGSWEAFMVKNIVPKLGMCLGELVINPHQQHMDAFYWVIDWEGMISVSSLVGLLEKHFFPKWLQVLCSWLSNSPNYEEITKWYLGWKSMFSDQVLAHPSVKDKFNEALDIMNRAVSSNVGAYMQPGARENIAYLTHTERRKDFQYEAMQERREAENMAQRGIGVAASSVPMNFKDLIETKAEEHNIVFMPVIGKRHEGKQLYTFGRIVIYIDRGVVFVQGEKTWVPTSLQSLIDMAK
Outline: as §1

RBM17 = biological target: T4, RBM17 (UniProt Q96I25)
T4 sequence: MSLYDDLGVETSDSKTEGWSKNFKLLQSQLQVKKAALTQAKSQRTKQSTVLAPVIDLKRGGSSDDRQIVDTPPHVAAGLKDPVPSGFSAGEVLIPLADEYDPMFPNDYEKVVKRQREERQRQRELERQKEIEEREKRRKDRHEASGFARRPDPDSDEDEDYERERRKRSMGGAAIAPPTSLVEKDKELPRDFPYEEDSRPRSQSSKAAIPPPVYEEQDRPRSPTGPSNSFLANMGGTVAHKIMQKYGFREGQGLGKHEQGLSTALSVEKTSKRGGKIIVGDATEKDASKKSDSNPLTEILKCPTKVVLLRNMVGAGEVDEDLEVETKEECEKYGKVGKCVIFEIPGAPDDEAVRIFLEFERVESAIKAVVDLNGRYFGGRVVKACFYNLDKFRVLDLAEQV
Outline: as §1

HNRNPDL = biological target: T5, HNRNPDL (UniProt O14979)
T5 sequence: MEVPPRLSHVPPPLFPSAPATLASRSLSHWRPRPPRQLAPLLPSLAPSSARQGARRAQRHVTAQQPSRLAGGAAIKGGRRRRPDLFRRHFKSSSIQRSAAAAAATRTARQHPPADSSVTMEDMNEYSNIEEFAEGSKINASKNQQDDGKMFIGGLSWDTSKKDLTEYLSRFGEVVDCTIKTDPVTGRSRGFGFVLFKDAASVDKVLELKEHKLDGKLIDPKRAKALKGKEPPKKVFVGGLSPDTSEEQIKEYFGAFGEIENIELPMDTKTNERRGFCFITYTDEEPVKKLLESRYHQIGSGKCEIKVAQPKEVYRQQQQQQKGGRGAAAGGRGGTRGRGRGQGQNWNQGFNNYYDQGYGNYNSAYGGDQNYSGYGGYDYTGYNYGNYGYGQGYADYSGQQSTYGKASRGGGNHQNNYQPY
Outline: as §1

| Sequence | EC50 (SRSF3) [nM] | EC50 (CSTF1) [nM] | EC50 (TFIP11) [nM] | EC50 (RBM17) [nM] | EC50 (HNRNPDL) [nM] |
| --- | --- | --- | --- | --- | --- |
| AAUAAA | 3030 | 53.9 | 2350 | 2490 | 2090 |
| CUGUCCU | 2620 |  |  |  |  |
| UAUUUAU |  | 574 | 2390 | 93.1 | 3480 |
